Data published in patent US20110091971A1, “Differentiation of Pluripotent Stem Cells” (priority 2008, published 2011).
Where “and” joins values, the source holds several entries; their conditions need not be identical. Equal values may be shown once. Entries after “also recorded” stand apart in the source; their conditions may differ.

Test system: H1 or H9 human embryonic stem cells
Assay: Activin A bioassay: differentiation of human embryonic stem cells to definitive endoderm, cell number and SOX17 intensity by high content analysis (96-well, four days);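 on Cell Number average: Raw total cell count per well from high content imaging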;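 on Sox 17 Intensity average: total fluorescence of the cell multiplied by cell area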
Assay type: cell-based
Description: Activin A is an important mediator of differentiation in a broad range of cell types. […] A bioassay that measures this differentiation in human embryonic stem cells was adapted in miniaturized format to 96-well plates for screening purposes. Validation was completed using treatment with commercial sources of activin A and Wnt3a recombinant proteins and measuring protein expression of the transcription factor SOX17, which is considered a representative marker of definitive endoderm.
Live Cell Assay: Briefly, clusters of H1 or H9 human embryonic stem cells were grown on growth factor-reduced MATRIGEL™ (Invitrogen; Cat #356231)-coated tissue culture plastic. Cells were passaged using collagenase (Invitrogen; Cat # Cat #17104-019) treatment and gentle scraping, washed to remove residual enzyme, and plated in a ratio of 1:1 (surface area) on growth factor-reduced MATRIGEL™-coated 96-well plates (black, 96-well; Packard ViewPlates; Cat #6005182). Cells were allowed to attach as clusters and then recover log phase growth over a 1 to 3 day period, feeding daily with MEF conditioned medium supplemented with 8 ng/ml bFGF (R&D Systems; Cat #233-FB).
The assay was initiated by washing the wells of each plate twice in PBS and followed by adding an aliquot (100 μl) of test sample in DMEM:F12 basal medium (Invitrogen; Cat #11330-032) to each well. Test conditions were performed in triplicate, feeding […] by aspirating and replacing the medium from each well with test samples over a total four day assay period. On the first and second day of assay, test samples added to the assay wells were diluted in DMEM:F12 with 0.5% FCS (HyClone; Cat #SH30070.03) and 20 ng/ml Wnt3a (R&D Systems; Cat #1324-WN). On the third and fourth day of assay, test samples added to the assay wells were diluted in DMEM:F12 with 2% FCS, without any Wnt3a. Positive control samples consisted of recombinant human activin A (Peprotech; Cat #120-14) added at a concentration of 100 ng/ml throughout assay plus Wnt3a (20 ng/ml) on days 1 and 2. Negative control samples omitted treatment with both activin A and Wnt3a.
High Content Analysis: At the conclusion of four days of culture, assay plates were washed twice with PBS, fixed with 4% paraformaldehyde at room temperature for 20 minutes, then washed three times with PBS and permeabilized with 0.5% Triton X-100 for 20 minutes at room temperature. Cells were washed again three times with PBS and blocked with 4% chicken serum (Invitrogen; Cat #16110082) in PBS for 30 minutes at room temperature. Primary antibody (goat anti-human SOX17; R&D Systems; cat #AF1924) was diluted 1:100 in 4% chicken serum and added to each well for one hour at room temperature. Alexa Fluor 488 conjugated secondary antibody (chicken anti-goat IgG; Molecular Probes; Cat #) was diluted 1:200 in PBS and added to each sample well after washing three times with PBS. To counterstain nuclei, 4 μg/ml Hoechst 33342 (Invitrogen; Cat #H3570) was added for ten minutes at room temperature. Plates were washed once with PBS and left in 100 μl/well PBS for imaging.
Imaging was performed using an IN Cell Analyzer 1000 (GE Healthcare) utilizing the 51008bs dichroic for cells stained with Hoechst 33342 and Alexa Fluor 488. Exposure times were optimized from positive control wells and from untreated negative control wells stained with secondary antibody alone. Images from 15 fields per well were acquired to compensate for any cell loss during the bioassay and subsequent staining procedures. Measurements for total cell number and total SOX17 intensity were obtained from each well using IN Cell Developer Toolbox 1.7 (GE Healthcare) software. Segmentation for the nuclei was determined based on grayscale levels (baseline range 100-300) and nuclear size. Averages and standard deviations were calculated for each replicate data set. […]

[1] = supernatant concentration 1x, assay dilution 1:20
[2] = supernatant concentration 1x, assay dilution 1:20, control = R&D Sys Activin A 100 ng/ml on same plate
[3] = supernatant concentration 10x, assay dilution 1:20
[4] = supernatant concentration 10x, assay dilution 1:20, control = R&D Sys Activin A 100 ng/ml on same plate
[5] = supernatant concentration 10x, assay dilution 1:40
[6] = supernatant concentration 10x, assay dilution 1:40, control = R&D Sys Activin A 100 ng/ml on same plate
[7] = concentrated supernatant (10x; ACTD3 4x), assay dilution 1:20

R&D Sys Activin A
Cell Number average (assay concentration 6.25 ng/ml): 5540 | Sox 17 Intensity % of control (assay concentration 6.25 ng/ml): 13% | Sox 17 Intensity average (assay concentration 6.25 ng/ml): 5.49E+06 | Cell Number average (assay concentration 12.5 ng/ml): 5784 | Sox 17 Intensity % of control (assay concentration 12.5 ng/ml): 19% | Sox 17 Intensity average (assay concentration 12.5 ng/ml): 8.10E+06 | Cell Number average (assay concentration 25 ng/ml): 6212 | Sox 17 Intensity % of control (assay concentration 25 ng/ml): 39% | Sox 17 Intensity average (assay concentration 25 ng/ml): 1.69E+07 | Cell Number average (assay concentration 50 ng/ml): 6218 | Sox 17 Intensity % of control (assay concentration 50 ng/ml): 33% | Sox 17 Intensity average (assay concentration 50 ng/ml): 1.45E+07 | Cell Number average (assay concentration 100 ng/ml): 8680 | Sox 17 Intensity % of control (assay concentration 100 ng/ml): 100% | Sox 17 Intensity average (assay concentration 100 ng/ml): 4.37E+07 | Cell Number average (assay concentration 200 ng/ml): 12032 | Sox 17 Intensity % of control (assay concentration 200 ng/ml): 285% | Sox 17 Intensity average (assay concentration 200 ng/ml): 1.25E+08 | Cell Number average (assay concentration 400 ng/ml): 13961 | Sox 17 Intensity % of control (assay concentration 400 ng/ml): 396% | Sox 17 Intensity average (assay concentration 400 ng/ml): 1.73E+08

B1: ACTN41: activin A variant peptide, SEQ ID 42 (protein)
chain: GLECDGKVNLCCKKQDFVSFKDIGWNDWIIAPSGYHANSCSGLCPSHIAGTSGSSLSFHSTVINHYRMRGHSPFSDRGACCIPTKLRPMSMLYYDDGQNIIKKDIQNMIVEECGCS
Cell Number average [1]: 6073 | Sox 17 Intensity average [1]: 1.42E+05 | Sox 17 Intensity % of control [2]: 1.5% | Cell Number average [3]: 1397 | Sox 17 Intensity average [3]: 1.46E+05 | Sox 17 Intensity % of control [4]: 1.6% | Cell Number average [5]: 2643 | Sox 17 Intensity average [5]: 6.30E+04 | Sox 17 Intensity % of control [6]: 0.7%

B2: OriGene wildtype: wildtype human activin A expressed from commercial OriGene construct (Cat. No. TC118774, pCMV6-XL4); supernatant used as positive control (protein, UniProt P08476 311-426, looked up)
Inhibin beta A chain: GLECDGKVNICCKKQFFVSFKDIGWNDWIIAPSGYHANYCEGECPSHIAGTSGSSLSFHSTVINHYRMRGHSPFANLKSCCVPTKLRPMSMLYYDDGQNIIKKDIQNMIVEECGCS
modifications: Inhibin beta A chain activin A homodimer
improvement of functional activity on concentrating the supernatant (HEK293-E supernatant, 4× concentrated versus 1× (neat)): approximately 1.5 fold | activity (SOX17 intensity) of supernatants (HEK293-E supernatants, OriGene in pCMV6-XL4 compared with ACTN 1 in pcDNA3.1(−)): much greater activity; also recorded: superior | Cell Number average [1]: 979 | Sox 17 Intensity average [1]: 1.819E+07 | Sox 17 Intensity % of control [2]: 9.9% | Cell Number average [3]: 5548 | Sox 17 Intensity average [3]: 2.035E+08 | Cell Number average (supernatant concentration 10x, assay dilution 1:20, assay plates #007, #009, #010, listed as OriGENE WT): 12727 and 7061 and 11356 | Cell Number average (supernatant concentration 50x, assay dilution 1:20, assay plates #008, #009, listed as OriGENE WT): 12200 and 9025 | Sox 17 Intensity % of control (supernatant concentration 50x, assay dilution 1:20, control = R&D Sys Activin A 100 ng/ml on same plate, listed as OriGENE WT): 409.0% and 285.3%

B3: ACTN39: activin A variant peptide, SEQ ID 40 (protein)
chain: GLECDGKVNLCCKKQNFVSFKDIGWNDWIIAPSGYHANECSGLCPSHIAGTSGSSLSFHSTVINHYRMRGHSPFSDMGSCCVPTKLRPMSMLYYDDGQNIIKKDIQNMIVEECGCS
Cell Number average [1]: 1596 | Sox 17 Intensity average [1]: 5.13E+04 | Sox 17 Intensity % of control [2]: 0.5% | Cell Number average [3]: 3362 | Sox 17 Intensity average [3]: 1.31E+06 | Sox 17 Intensity % of control [4]: 14.0% | Cell Number average [5]: 1331 | Sox 17 Intensity average [5]: 4.81E+05 | Sox 17 Intensity % of control [6]: 5.1%

B4: ACTN38: activin A variant peptide, SEQ ID 39 (protein)
chain: GLECDGKVNLCCKKQDFVSFKDIGWNDWIIAPSGYHANKCGGKCPSHIAGTSGSSLSFHSTVINHYRMRGHSPFSQLGACCVPTKLRPMSMLYYDDGQNIIKKDIQNMIVEECGCS
Cell Number average [1]: 2023 | Sox 17 Intensity average [1]: 9.26E+04 | Sox 17 Intensity % of control [2]: 1.0% | Cell Number average [3]: 3019 | Sox 17 Intensity average [3]: 3.89E+05 | Sox 17 Intensity % of control [4]: 4.2% | Cell Number average [5]: 2520 | Sox 17 Intensity average [5]: 3.56E+04 | Sox 17 Intensity % of control [6]: 0.4%

B5: ACTN16: activin A variant peptide, SEQ ID 17 (protein)
chain: GLECDGKVNLCCKKQLFVSFKDIGWNDWIIAPSGYHANHCSGLCPSHIAGTSGSSLSFHSTVINHYRMRGHSPFSQMGACCVPTKLRPMSMLYYDDGQNIIKKDIQNMIVEECGCS
Cell Number average [7]: 8775 | Sox 17 Intensity average [7]: 3.89E+07 | Sox 17 Intensity % of control (concentrated supernatant (10x; ACTD3 4x), assay dilution 1:20, control = R&D Sys Activin A 100 ng/ml): 89% | higher potency of supernatant concentrated 10× relative to corresponding unconcentrated supernatant (primary screening, SOX17 expression, H1 cells): 4 fold | Cell Number average [1]: 7068 | Sox 17 Intensity average [1]: 1.36E+07 | Sox 17 Intensity % of control [2]: 52.7% | Cell Number average [3]: 11118 | Sox 17 Intensity average [3]: 5.55E+07 | Sox 17 Intensity % of control [4]: 214.4% | Cell Number average [5]: 11064 | Sox 17 Intensity average [5]: 6.46E+07 | Sox 17 Intensity % of control [6]: 249.3%

B6: R&D Sys Activin A (protein, UniProt P08476 311-426, looked up)
Inhibin beta A chain: GLECDGKVNICCKKQFFVSFKDIGWNDWIIAPSGYHANYCEGECPSHIAGTSGSSLSFHSTVINHYRMRGHSPFANLKSCCVPTKLRPMSMLYYDDGQNIIKKDIQNMIVEECGCS
modifications: Inhibin beta A chain activin A homodimer
Sox 17 Intensity % of control (100 ng/ml (the control itself)): 100% | Sox 17 Intensity % of control (100 ng/ml (the plate's control itself)): 100%

B7: ACTN35: activin A variant peptide, SEQ ID 36 (protein)
chain: GLECDGKVNLCCKKQDFVSFKDIGWNDWIIAPSGYHANRCSGKCPSHIAGTSGSSLSFHSTVINHYRMRGHSPFSDMGSCCVPTKLRPMSMLYYDDGQNIIKKDIQNMIVEECGCS
Cell Number average [1]: 8553 | Sox 17 Intensity average [1]: 7.94E+04 | Sox 17 Intensity % of control [2]: 0.3% | Cell Number average [3]: 6805 | Sox 17 Intensity average [3]: 1.26E+06 | Sox 17 Intensity % of control [4]: 4.3% | Cell Number average [5]: 7926 | Sox 17 Intensity average [5]: 6.76E+05 | Sox 17 Intensity % of control [6]: 2.3%

B8: ACTN43: activin A variant peptide, SEQ ID 44 (protein)
chain: GLECDGKVNYCCKKQDFVSFKDIGWNDWIIAPSGYHANRCDGKCPSHIAGTSGSSLSFHSTVINHYRMRGHSPFSDMGACCVPTKLRPMSMLYYDDGQNIIKKDIQNMIVEECGCS
Cell Number average [1]: 657 | Sox 17 Intensity average [1]: 1.85E+04 | Sox 17 Intensity % of control [2]: 0.2% | Cell Number average [3]: 877 | Sox 17 Intensity average [3]: 2.13E+05 | Sox 17 Intensity % of control [4]: 2.3% | Cell Number average [5]: 1251 | Sox 17 Intensity average [5]: 5.57E+04 | Sox 17 Intensity % of control [6]: 0.6%
